# Measurements as given in patent CN114409782A (HUAI SHANGHAI BIOMEDICINE LTD COMPANY, dated 2022).
# Numbering of substitutions follows the chain as printed.
# T1: IL13Ra2抗原 (in solution, Biacore) (UniProt Q14627 27-343, limits assumed)
# T1 construct: also called IL13Rα2; 白介素13受体α2
# T1 sequence (looked up): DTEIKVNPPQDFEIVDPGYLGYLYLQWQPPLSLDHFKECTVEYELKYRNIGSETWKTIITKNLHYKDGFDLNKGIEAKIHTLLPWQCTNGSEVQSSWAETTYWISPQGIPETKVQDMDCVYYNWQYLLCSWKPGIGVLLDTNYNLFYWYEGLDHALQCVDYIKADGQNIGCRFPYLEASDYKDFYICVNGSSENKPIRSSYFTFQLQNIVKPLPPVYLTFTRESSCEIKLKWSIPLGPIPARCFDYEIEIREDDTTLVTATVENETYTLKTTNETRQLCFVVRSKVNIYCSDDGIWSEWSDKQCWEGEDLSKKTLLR
# B1: 抗IL13Ra2纳米抗体VHH-7 (VHH-mIgG2a Fc) (Fc fusion)
# chain: QVQLVESGGGLAHPGGRLRVTCTASGANLKNYAVGWFRQRPGKQREEVACLRVRYANTNKAPSVRERVHVFREENNNLVYMLMSDLTPEDTGIYYCAARPQQPSADCSLLANDYDNWGQGIQVTVSE
# notes: not shown: mouse IgG2a Fc tag from vector C-4pCP.Stuffer-mCg2a-FC
# B2: 抗IL13Ra2纳米抗体VHH-1 (VHH-mIgG2a Fc) (Fc fusion)
# chain: QVQLVESGGGLVQPGGSLRLSCAASGFTLDYYAIAWFRQAPGKRREGVSCISSSEGSTNYADSVKGRFTISRDNAKNTVYLQMNSLKPEDTAVYYCAADSTGRCWARPLYEYDYRGQGTQVTVSS
# notes: as for B1
# B3: 抗IL13Ra2纳米抗体VHH-13 (VHH-mIgG2a Fc) (Fc fusion)
# chain: B2 chain with L11S, P14A, A23T, A24S, G26R
# notes: as for B1
# Target: T1, IL13Ra2抗原 (in solution, Biacore)
# Test: SPR (Biacore), antibody fixed on chip, IL13Ra2 in solution
Kd [nM],koff [s⁻¹],kon [M⁻¹ s⁻¹],Binder
32.4,0.00066,65400,B1
16.1,0.00156,55300,B2
16.6,0.00433,68300,B3
